The experiment addresses BASP1 (brain acid soluble protein 1, CAP23, NAP22) (UniProt Q91XV3). The experiment can be described thus: peptide affinity column, brain lysate, LC-MS/MS. The settings on record: reference: non-phospho peptide …; sites S351.

This note sets out measurements from publication PMC12496174.

For “PLPPR3 (phospholipid-phosphatase-related protein 3) (from UniProt Q7TPB0) pS351 peptide LKRApSVDVDLLA”, the “binding against the reference” value is given as “stronger”.
